Patent US20260184780A1 (MONASH UNIVERSITY, published 2026)

Assays:
[1] = biological target: T1, human PAR4 on isolated human platelets (human, UniProt Q96RI0 18-385); assay: cell-based or functional assay
T1 sequence: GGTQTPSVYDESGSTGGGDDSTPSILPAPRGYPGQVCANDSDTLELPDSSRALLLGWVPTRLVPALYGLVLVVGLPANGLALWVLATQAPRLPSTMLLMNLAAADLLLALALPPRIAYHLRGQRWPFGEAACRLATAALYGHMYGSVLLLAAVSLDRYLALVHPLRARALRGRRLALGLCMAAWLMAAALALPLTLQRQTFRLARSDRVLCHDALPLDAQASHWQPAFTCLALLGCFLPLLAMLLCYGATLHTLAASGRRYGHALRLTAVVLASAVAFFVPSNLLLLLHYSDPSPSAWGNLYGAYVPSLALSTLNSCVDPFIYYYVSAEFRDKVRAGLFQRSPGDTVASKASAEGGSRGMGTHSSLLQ

hPAR4 (naked) peptide [2] = biological target: T2, hPAR4 (naked) peptide (human); assay: ELISA, hybridoma supernatant
T2 construct: also called native PAR4 peptide; hPAR4 peptide
T2 peptide: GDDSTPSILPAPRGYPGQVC

hPAR1 (Biotin) peptide [3] = biological target: T3, hPAR1 (Biotin) peptide (human, not fully specified; biotin on the C-terminal lysine (SKB)); assay: ELISA, hybridoma supernatant
T3 construct: also called PAR1 peptide; PAR1 screening peptide
T3 peptide: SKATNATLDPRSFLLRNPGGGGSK

hPAR3 (Biotin) peptide [4] = biological target: T4, hPAR3 (Biotin) peptide (human, biotin on the C-terminal lysine (SKB)); assay: ELISA, hybridoma supernatant
T4 construct: also called PAR3 peptide; PAR3 screening peptide
T4 peptide: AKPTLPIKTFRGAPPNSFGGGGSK

mPAR4 (naked) peptide = biological target: T5, mPAR4 (naked) peptide (mouse); assay: ELISA, hybridoma supernatant
T5 construct: T0021 says only 'mouse PAR4'; also called mouse PAR4
T5 peptide: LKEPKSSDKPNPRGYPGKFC

hPAR4 (naked) peptide [5] = biological target: T2, hPAR4 (naked) peptide; assay: ELISA, purified mAb on hPAR4 peptide
hPAR4 (Biotin) peptide = biological target: T6, hPAR4 (Biotin) peptide (human, biotin on the C-terminal lysine (SKB)); assay: SPR Biacore T200, biotin peptide on SA chip, whole mAb as analyte
T6 construct: also called hPAR4-biotinylated peptide; biotin-coupled human PAR4 peptide
T6 peptide: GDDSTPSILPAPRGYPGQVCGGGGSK
Description: (§1) The kinetics of the binding interaction between the mAbs and hPAR4 was measured using Surface Plasmon Resonance (SPR; Biacore) by two different methods: 1. Anti-mouse Fc mAb capture method and 2. Streptavidin (SA) chip to capture biotinylated peptide. The ka(on) rate and kd(off) rates and KD were measured and fitted to a Langmuir model using the Biacore evaluation software.

hPAR4 (naked) peptide [6] = biological target: T2, hPAR4 (naked) peptide; assay: SPR Biacore T200, mAb captured by anti-mouse Fc, hPAR4 peptide as analyte
Description: A series S CM5 sensor chip was activated with standard EDC/NHS amine coupling chemistry using the manufacturers recommended protocol with Goat anti-mouse IgG Fc. Anti-hPAR4 mAbs were captured at 1-2 ug/ml for 2 minutes at 10 ul/minute on flow cell 2 (FC2) and flow cell 1 (FC1) was used as a reference channel. […] Blank injections of buffer alone were also performed. All injections were performed in duplicate and in a random order.
as §1

hPAR1 (Biotin) peptide [7] = biological target: T3, hPAR1 (Biotin) peptide; assay: ELISA, biotinylated peptide on streptavidin plate, absorbance 405 nm
Description: (§2) Biotinylated peptides (hPAR1-4) were diluted in Wash buffer and allowed to bind to the blocked Streptavidin coated wells at 10 ug/ml (100 ul per well) for 1 hour at room temperature with gentle mixing. Wells were washed 3 times as above and purified anti-hPAR4 mAbs prepared at 10 ug/ml in Wash buffer were allowed to bind (100 ul/well) for 1 hour at room temperature with gentle mixing. The plate was washed 3 times as above and anti-mouse Fc conjugated to Alkaline phosphatase (AP) at 0.3 ug/ml (100 ul) was added to the wells for 1 hour as above. Wells were washed 3 times as above and developed with Alkaline Phosphatase substrate as described for the screening supernatant ELISA.
(§3) To further characterise the purified anti-hPAR4 mAb's the specificity of the mAbs to hPAR1, hPAR2, hPAR3 and hPAR4 biotinylated peptides was performed.

hPAR2 (Biotin) peptide = biological target: T7, hPAR2 (Biotin) peptide (human, not fully specified; biotin on the C-terminal lysine (SKB)); assay: as above
T7 construct: also called PAR2 peptide; PAR2 screening peptide
T7 peptide: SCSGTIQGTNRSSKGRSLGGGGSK
Description: as §2, §3

hPAR3 (Biotin) peptide [8] = biological target: T4, hPAR3 (Biotin) peptide; assay: as above
Description: as §2, §3

[9] = biological target: T1, human PAR4 on isolated human platelets; assay: flow cytometry on isolated human platelets
hPAR4 1-9 peptide = biological target: T8, hPAR4 1-9 peptide (human); assay: ELISA, peptide coated on the plate, purified mAb, background subtracted
T8 construct: Range counted on the hPAR4 immunising peptide; also called peptide 1-9
T8 peptide: GDDSTPSIL
Description: (§4) Briefly the peptides were coated onto a Nunc maxisorp ELISA plate at 10 ug/ml overnight in coating buffer (0.1 M sodium carbonate pH8.0). Purified mAbs diluted in PBS were used in place of supernatant.

hPAR4 11-20 peptide = biological target: T9, hPAR4 11-20 peptide (human); assay: as above
T9 construct: Range counted on the hPAR4 immunising peptide; the C-terminal cysteine was removed, so nine residues are given; also called peptide 11-20
T9 peptide: APRGYPGQV
Description: as §4

B1: 5H RG4.H7b.F5b (antibody, IgG2a, V domains shown)
VH: QVQLVQSGAEVKKPGASVKVSCKASGYTFTGHYFHWVRQAPGQGLEWMGWINPNSGGTNFAQRFQGRVTMTRVTSISTAYMELSGLRSDDTAVYYCARGYYDTSGYYYAFEFWGQGTLVIVSS
VL: not shown
**Q.** Which “platelet aggregation, % of control” value [1] does the source give for B1 here?
**A.** > 80 % of control

B2: 5I.RG1.D6.C1b (antibody, IgG3, V domains shown)
VH: QVQLQQWGAGLLKPSETLSLACAISSGSFSTYFWRWIRQPPGKGLEWIGEIIHTGSTTYNPSLKSRVTISVDTSKNQLSLKLSSVTAADTAVYYCAFEYSSSGGYYYGMDVWGQGTTVTVSS
VL: DIQMTQSPSSLSASVGDRVTITCRASQSISSYLNWYQQIPGKAPNLLIYAASSLRSGVPSRFSGSGSGTDFTLTISSLQPEDFATYYCQQTYSTPLTFGGGTKVEIK
notes: also called 51.RG1; MoB5I G1
**Q.** How did the “fold binding native vs KLH-linked PAR4 peptide” value (from here on “fold binding native”) (hPAR4 (naked) peptide [2]) turn out when B2 was run?
**A.** 9.2 fold

**Q.** What about the “binding to PAR1 ratio” value (hPAR1 (Biotin) peptide [3]) of the same binder?
**A.** 1 ratio

**Q.** And the “binding to PAR3 ratio” value (hPAR3 (Biotin) peptide [4])?
**A.** 1 ratio

**Q.** What about the “binding to mouse PAR4 ratio” value (mPAR4 (naked) peptide) of the same binder?
**A.** 9.4 ratio

**Q.** What about the “ELISA Pos:Neg ratio” value (hPAR4 (naked) peptide [5]) of the same binder?
**A.** 6.3 ratio

**Q.** And the Kd (hPAR4 (Biotin) peptide)?
**A.** 0.36 nM

**Q.** And the koff (hPAR4 (Biotin) peptide)?
**A.** 0.000667 s⁻¹

**Q.** What about the kon (hPAR4 (Biotin) peptide) of the same binder?
**A.** 1.85e+06 M⁻¹ s⁻¹

**Q.** What about the Kd (hPAR4 (naked) peptide [6]) of the same binder?
**A.** 105 nM

**Q.** And the koff (hPAR4 (naked) peptide [6])?
**A.** 0.00146 s⁻¹

**Q.** And the kon (hPAR4 (naked) peptide [6])?
**A.** 14000 M⁻¹ s⁻¹

**Q.** Does B2 bind (hPAR1 (Biotin) peptide [7])?
**A.** no binding (tested: 10 ug/ml)

**Q.** Does B2 bind (hPAR2 (Biotin) peptide)?
**A.** no binding (tested: 10 ug/ml)

**Q.** Does B2 bind (hPAR3 (Biotin) peptide [8])?
**A.** no binding (tested: 10 ug/ml)

B3: 5H.RD2.A7b (antibody, IgG1, V domains shown)
VH: EVQLVESGGDLVKPGGSLRLSCSASGFTFFNTWMNWVRQAPGKGLEWVGRVKSKNDGGTKDYAAPVTGRFTISRDDSKDTLYLQMNSLKTEDTAVYYCTTDPHYDFWSAYWGQGTLVTVSS
VL: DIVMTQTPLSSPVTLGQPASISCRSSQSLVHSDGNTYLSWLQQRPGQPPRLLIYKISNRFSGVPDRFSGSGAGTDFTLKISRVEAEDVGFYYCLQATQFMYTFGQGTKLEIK
notes: also called MoB5H-RD2.A7b; MoB5H D2
**Q.** Which results are given for B3?
**A.** platelet aggregation, % of control [1]: > 80 % of control; fold binding native vs KLH-linked PAR4 peptide (hPAR4 (naked) peptide [2]): 6 fold; binding to PAR1 ratio (hPAR1 (Biotin) peptide [3]): 1 ratio; binding to PAR3 ratio (hPAR3 (Biotin) peptide [4]): 0.9 ratio; binding to mouse PAR4 ratio (mPAR4 (naked) peptide): 6.2 ratio

B4: 5H.RA3.D3b.A2b (antibody, IgG2a, V domains shown)
VH: QVQLVESGGGVVQPGRSLRVSCAASGFTFSSYGMLWVRQAPGKGLEWVAVIWYDGTKKYYADSLKGRFTISRDNSKYTLYLQMNSLRADDTALYFCARKGARGITGLDYWGQGTLVTVSS
VL: not shown
notes: also called MoB5H A3
**Q.** With B4 as the binder, how does the “platelet aggregation, % of control” value [1] read?
**A.** < 25 % of control

**Q.** And the “GMFI at 10 ug/ml over isotype control” value [9]?
**A.** 100

**Q.** Does B4 bind (hPAR1 (Biotin) peptide [7])?
**A.** no binding (tested: 10 ug/ml)

**Q.** Does B4 bind (hPAR2 (Biotin) peptide)?
**A.** no binding (tested: 10 ug/ml)

**Q.** Does B4 bind (hPAR3 (Biotin) peptide [8])?
**A.** no binding (tested: 10 ug/ml)

B5: 5F RE6.D3.E7 (antibody, IgG2a, V domains shown)
VH: QVQLAESGGGVVQPGRSLRVSCAASGFTFSSYGMHWVRQAPGKGLEWVAVIWYDGTKKYYADSLKGRFTISRDNSKYTLYLQMNSLRADDTALYFCARKGARGITGLDYWGQGTLVTVSS
VL: DIQMTQSPSSLSASAGDRITITCRASQSISNYLNWYQQKPGKAPKLLIYAASSLQSGVPSRFSGSGSGTDFTLTISSLQPEDFASYYCRQNYNTPLTFGGGTKVEIK
notes: also called MoB5F E6
**Q.** For B5, which “fold binding native” value (hPAR4 (naked) peptide [2]) is on record?
**A.** 12 fold

**Q.** What about the “binding to PAR1 ratio” value (hPAR1 (Biotin) peptide [3]) of the same binder?
**A.** 1.1 ratio

**Q.** What about the “binding to PAR3 ratio” value (hPAR3 (Biotin) peptide [4]) of the same binder?
**A.** 0.8 ratio

**Q.** And the “binding to mouse PAR4 ratio” value (mPAR4 (naked) peptide)?
**A.** 12.2 ratio

B6: 5D.RH4.G7.E6.C7b.G7 (antibody, IgG2a, V domains shown)
VH: QIQLVESGGGVVQPGRSLRLSCAASGFTFSSDGMHWVRQAPGKGLEWVAVIWFDGRNKYYLDSVKGRFTISRDNSKNTLYLQMNSLRAEDTAVYYCARESSISTRPPFDYWGQGTLVTVSS
VL: not shown
notes: Human variable regions on mouse constant regions, IgG2a/K
**Q.** Which “GMFI at 10 ug/ml over isotype control” value [9] does the source give for B6 here?
**A.** 33

**Q.** Does B6 bind (hPAR1 (Biotin) peptide [7])?
**A.** no binding (tested: 10 ug/ml)

**Q.** Does B6 bind (hPAR2 (Biotin) peptide)?
**A.** no binding (tested: 10 ug/ml)

**Q.** Does B6 bind (hPAR3 (Biotin) peptide [8])?
**A.** no binding (tested: 10 ug/ml)

**Q.** Does B6 bind (hPAR4 1-9 peptide)?
**A.** no binding

**Q.** Does B6 bind (hPAR4 11-20 peptide)?
**A.** no binding

B7: 5G.RA1.E10.G3 (antibody, IgG2a, V domains shown)
VH: QVQLVESGGGVVQPGRSLRLSCAASGFTFSSYGMHWVRQAPGKGLEWVAVIWYDGSNKYYADSVKGRFTISRDNSKNTLYLQMNSLRAEDTAVYYCARETALVRGVPFDYWGQGTLVTVSS
VL: not shown
notes: also called MoB5G A1
**Q.** Which results are given for B7?
**A.** GMFI at 10 ug/ml over isotype control [9]: 25; binding result (hPAR1 (Biotin) peptide [7]): no binding (tested: 10 ug/ml); binding result (hPAR2 (Biotin) peptide): no binding (tested: 10 ug/ml); binding result (hPAR3 (Biotin) peptide [8]): no binding (tested: 10 ug/ml); binding result (hPAR4 1-9 peptide): no binding; binding result (hPAR4 11-20 peptide): no binding

B8: 5G RG1.D3.C2b (antibody, IgG1, V domains shown)
VH: QVQLVESGGGVVQPGRSLRLSCVASGFTLSSYGMHWVRQAPGKGLEWVAVIWYDGSSKYYTDSVKGRFDISRDNSKNTLYLQMNILRAEDTAVYYCARETILIGGVPFDYWGQGTLVTVSS
VL: EIVLTQSPGTLSLSPGERATLSCGASQSIRSNYLAWYQQKPGQAPRLLIYGASSRATGTPDRFSGSGSGTDFTLTITRLEPEDFALYYCQQYGRSYTFGQGTKLEIK
notes: also called MoB5G G1
**Q.** Which “platelet aggregation, % of control” value [1] does the source give for B8 here?
**A.** < 25 % of control

**Q.** What about the “fold binding native” value (hPAR4 (naked) peptide [2]) of the same binder?
**A.** 11.1 fold

**Q.** And the “binding to PAR1 ratio” value (hPAR1 (Biotin) peptide [3])?
**A.** 1.1 ratio

**Q.** What about the “binding to PAR3 ratio” value (hPAR3 (Biotin) peptide [4]) of the same binder?
**A.** 0.8 ratio

**Q.** What about the “binding to mouse PAR4 ratio” value (mPAR4 (naked) peptide) of the same binder?
**A.** 8.6 ratio

B9: 5G RD6.D1.E11b (antibody, IgG2a, V domains shown)
VH: QVQLVESGGGVVQPGRSLRLSCAASGFAFSSYGMHWVRQAPGKGLEWVAVIWYDGSNRYYADSVKGRFTISRDTSKNTLFLQMNSLRAEDTAVYYCARETAMVRGVPFDYWGQGTLVTVSS
VL: not shown
**Q.** With B9 as the binder, how does the “platelet aggregation, % of control” value [1] read?
**A.** > 80 % of control
